Laboratory results from the supplement of paper PMC6757056.
± gives the standard deviation of the averaged measurements.

B1: library; a variant is named by its letters at N, in order (parent)
chain: GCUGUCACCGGUGUAUUACCCUAGUGGUCGACCGGUCUGAUGAGUCUNNNNNNAGACGAAACAGC

How the values were obtained:
hypoxanthine [1] = variants of: B1; test: FACS-Seq fitted mean relative fluorescence mCherry/BFP without ligand (log10 relative fluorescence); ligand: hypoxanthine (xanthine aptamer); higher = higher reporter protein expression; settings: HEK293T, ligand present: no
Method in brief: (§1)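 An mCherry reporter containing the ribozyme switch and an EF1α-BFP marker were introduced by lentivirus into HEK293T libraries. Cells were enriched, incubated 48 h with or without ligand, sorted into 6 bins by mCherry/BFP, and bin genomic DNA was PCR-amplified, barcoded and sequenced on MiSeq. Fluorescence represents the normalized fitted normal mean of the bin counts. Fitting was done on log10(mCherry/BFP), scaling to five spiked-in control ribozymes.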

hypoxanthine [2] = variants of: B1; test: normalized RNA/DNA level with ligand (relative to sTRSVctl = 100) (log10 (% of sTRSVctl)); ligand: hypoxanthine (xanthine aptamer); higher = less ribozyme self-cleavage, higher mRNA level; settings: ligand concentration (+) RNA-Seq: 5 mM, HEK293T, reporter: mCherry (pCS4076), ligand present: yes
Experimental: (§2)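 Hammerhead (sTRSV) ribozyme switch libraries with a ligand aptamer grafted on stem I and a randomized N4-6 loop II, cloned into the 3' UTR of mCherry and transiently transfected into HEK293T cells; RNA-Seq 72 h post transfection with ligand added 1 h before transfection; RNA read count / plasmid DNA read count normalized to the non-cleaving sTRSVctl (x100), log10; sequences with >100 DNA reads. FACS-Seq: lentiviral library sorted into 6 bins after 48 h ligand, log-normal fit mean of mCherry/BFP scaled to controls. Printed sequences are partial switch sequences.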

hypoxanthine [3] = variants of: B1; test: normalized RNA/DNA level without ligand (relative to sTRSVctl = 100) (log10 (% of sTRSVctl)); ligand: hypoxanthine (xanthine aptamer); higher = less ribozyme self-cleavage, higher mRNA level; settings: HEK293T, reporter: mCherry (pCS4076), ligand present: no
Experimental: as §2

hypoxanthine [4] = variants of: B1; test: FACS-Seq fitted mean relative fluorescence mCherry/BFP with ligand (log10 relative fluorescence); ligand: hypoxanthine (xanthine aptamer); ligand concentration (+) FACS-Seq: 5 mM; higher = higher reporter protein expression; settings: HEK293T, ligand present: yes
Method in brief: as §1

Row | Variant | FACS-Seq fitted mean (log10) (hypoxanthine [1]) | normalized RNA/DNA level with ligand (log10) (hypoxanthine [2]) | normalized RNA/DNA level without ligand (log10) (hypoxanthine [3]) | FACS-Seq fitted mean (log10) (hypoxanthine [4])
1 | ACAGCG | 0.12 ± 0.062 | 1.92 ± 0.028 | 1.67 ± 0.0018 | 0.456 ± 0.065
2 | ACGAAA | 0.129 ± 0.049 | 1.86 ± 0.039 | 1.47 ± 0.056 | 0.425 ± 0.036
3 | UCCCAG | 0.261 ± 0.0092 | 1.84 ± 0.0087 | 1.35 ± 0.023 | 0.506 ± 0.016
4 | UCCCAC | 0.0771 ± 0.00054 | 1.894 ± 0.014 | 1.56 ± 0.017 | 0.177 ± 0.043
5 | GCACUG | 0.25 ± 0.031 | 1.877 ± 0.012 | 1.45 ± 0.029 | 0.464 ± 0.011
6 | GCACUU | 0.8516 ± 0.0035 | 1.965 ± 0.015 | 1.9 ± 0.068 | 0.751 ± 0.069
7 | GCACUA | 0.503 ± 0.091 | 1.939 ± 0.0064 | 1.81 ± 0.027 | 0.489 ± 0.08
8 | GCCAUG | 0.392 ± 0.0043 | 1.87 ± 0.094 | 1.48 ± 0.15 | 0.683 ± 0.074
9 | GCCAUA | 0.231 ± 0.083 | 1.95 ± 0.049 | 1.85 ± 0.079 | 0.487 ± 0.0075
10 | GCCUCG | 0.33703 ± 0.00012 | 1.91 ± 0.039 | 1.6 ± 0.029 | 0.649 ± 0.049
11 | ACCUAC | 0.113 ± 0.032 | 1.92 ± 0.035 | 1.85 ± 0.05 | 0.264 ± 0.013
12 | ACCUAG | -0.692 ± 0.013 | 1.86 ± 0.03 | 1.58 ± 0.016 | -0.308 ± 0.028
13 | ACAUCG | 0.306 ± 0.048 | 1.932 ± 0.019 | 1.57 ± 0.016 | 0.584 ± 0.052
14 | GCAUUG | 0.25 ± 0.015 | 1.88 ± 0.0068 | 1.4 ± 0.022 | 0.602 ± 0.062
15 | UCACUG | 0.184 ± 0.08 | 1.89 ± 0.041 | 1.55 ± 0.012 | 0.463 ± 0.081
16 | ACCAUA | -0.27 ± 0.052 | 1.85 ± 0.049 | 1.849 ± 0.01 | -0.201 ± 0.13
17 | ACCAUU | 0.187 ± 0.05 | 1.971 ± 0.015 | 1.839 ± 0.007 | 0.395 ± 0.049
18 | GCAGGA | 0.661 ± 0.024 | 1.9091 ± 0.0012 | 1.72 ± 0.035 | 0.705 ± 0.051

Row | Variant | FACS-Seq fitted mean (log10) (hypoxanthine [1]) | normalized RNA/DNA level with ligand (log10) (hypoxanthine [2]) | normalized RNA/DNA level without ligand (log10) (hypoxanthine [3]) | FACS-Seq fitted mean (log10) (hypoxanthine [4])
19 | GCAGGG | -0.0762 ± 0.0096 | 1.88 ± 0.028 | 1.506 ± 0.0099 | 0.479 ± 0.017
20 | ACCAGU | -0.346 ± 0.35 | 1.907 ± 0.0063 | 1.8 ± 0.064 | -0.721 ± 0.15
21 | UCCAUG | -0.135 ± 0.032 | 1.88 ± 0.074 | 1.49 ± 0.025 | -0.271 ± 0.076
22 | ACACUG | 0.4461 ± 0.0036 | 1.9 ± 0.021 | 1.42 ± 0.097 | 0.795 ± 0.052
23 | UCAGCG | 0.383 ± 0.009 | 1.94 ± 0.067 | 1.8203 ± 0.0012 | 0.656 ± 0.083
24 | UCAGGG | 0.486 ± 0.02 | 1.951 ± 0.015 | 1.69 ± 0.065 | 0.704 ± 0.067
25 | UCAGGA | 0.301 ± 0.039 | 1.89 ± 0.02 | 1.44 ± 0.047 | 0.6634 ± 0.0026
26 | ACACGG | -0.144 ± 0.07 | 1.79 ± 0.053 | 1.32 ± 0.041 | 0.465 ± 0.024
27 | ACACGU | 0.624 ± 0.02 | 1.95 ± 0.079 | 1.823 ± 0.0069 | 0.572 ± 0.096
28 | ACACGA | -0.273 ± 0.0021 | 1.91 ± 0.062 | 1.73 ± 0.058 | 0.145 ± 0.0024
29 | GCAUCG | 0.0876 ± 0.11 | 1.964 ± 0.018 | 1.506 ± 0.0042 | 0.53188 ± 0.00023
30 | GCACCU | 0.968 ± 0.14 | 1.942 ± 0.0073 | 1.94 ± 0.044 | 0.785 ± 0.08
31 | CCAUAU | 0.286 ± 0.014 | 1.96 ± 0.029 | 1.82 ± 0.057 | 0.542 ± 0.01
32 | CCAUAC | 0.1516 ± 0.0013 | 1.9 ± 0.031 | 1.836 ± 0.011 | 0.283 ± 0.013
33 | ACCUUG | 0.241 ± 0.0074 | 1.88 ± 0.014 | 1.6 ± 0.055 | 0.521 ± 0.04
34 | CCCUGA | 0.263 ± 0.023 | 1.92 ± 0.031 | 1.88 ± 0.039 | 0.308 ± 0.011
35 | UCCGUU | -0.463 ± 0.04 | 1.946 ± 0.016 | 1.925 ± 0.019 | -0.148 ± 0.1
36 | UCCGUG | 0.223 ± 0.023 | 1.91 ± 0.071 | 1.47 ± 0.072 | 0.508 ± 0.065
